{"source": "patent US9212226B2", "about": "“Amino acid sequences directed against CXCR4 and other GPCRs and compounds comprising the same” (Ablynx N.V., priority 2008, dated 2015)", "molecules": {"B1": {"name": "238D2: Nanobody (VHH) raised against human CXCR4, SEQ ID NO: 238 (protein)", "VHH": "EVQLVESGGGLVQTGGSLRLSCAASGFTFSSYAMSWVRQAPGKGLEWVSGIKSSGDSTRYAGSVKGRFTISRDNAKNMLYLQMYSLKPEDTAVYYCAKSRVSRTGLYTYDNRGQGTQVTVSS", "modifications": "Nanobody, Nanobody constructs or fragments thereof"}, "B2": {"name": "238D4: Nanobody (VHH) raised against human CXCR4, SEQ ID NO: 239 (protein)", "VHH": "EVQLMESGGGLVQAGGSLRLSCAASGRTFNNYAMGWFRRAPGKEREFVAAITRSGVRSGVSAIYGDSVKDRFTISRDNAKNTLYLQMNSLKPEDTAVYTCAASAIGSGALRRFEYDYSGQGTQVTVSS", "modifications": "Nanobody, Nanobody constructs or fragments thereof"}}, "format_in_all_cases": "cell-based", "key": {"CXCR2": {"target": "T1, CXCR2 (Homo sapiens, UniProt P25025)", "T1 sequence (P25025 1-360)": "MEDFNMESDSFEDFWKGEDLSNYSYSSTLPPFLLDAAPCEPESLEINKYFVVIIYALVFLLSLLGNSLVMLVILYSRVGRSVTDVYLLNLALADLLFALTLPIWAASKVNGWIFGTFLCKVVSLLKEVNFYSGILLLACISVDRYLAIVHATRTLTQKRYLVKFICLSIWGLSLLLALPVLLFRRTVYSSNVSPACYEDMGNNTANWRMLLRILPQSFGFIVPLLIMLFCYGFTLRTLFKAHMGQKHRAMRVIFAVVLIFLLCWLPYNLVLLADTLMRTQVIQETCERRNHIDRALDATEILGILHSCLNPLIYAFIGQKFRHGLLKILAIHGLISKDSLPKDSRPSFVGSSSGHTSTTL", "experiment": "CRE/β-galactosidase reporter gene selectivity screen, CXCR2", "conditions": "up to 2.5, forskolin 3 μM, agonist at 50-80% Emax", "procedure": "(§1) Data are shown as means±S.E.M. (n=2-3).\n(§2) HEK293T cells were maintained at 37° C. in a humidified 5% CO2, 95% air atmosphere in Dulbecco's modified Eagle's medium (DMEM) containing 2 mM L-glutamine, 50 IU/ml penicillin, 50 μg/ml streptomycin, and 10% (v/v) fetal calf serum. Jurkat cells were cultured in a humidified 5% CO2, 95% air atmosphere in a 1:1 mixture of Dulbecco's modified Eagle's medium (DMEM) and Ham's F12 medium containing 2 mM L-glutamine, 50 IU/ml penicillin, 50 μg/ml streptomycin, and 10% (v/v) fetal calf serum. […] [^125 I]-Labelling— Radiolabeling of Nanobodies with ^125I was performed using the Iodo-gen method (Pierce, Rockford, Ill.) according to the manufacturer's protocol. ^125I-labeled Nanobodies was separated from free iodine (>99%) using a Sephadex G-25 gel filtration column (Amersham Biosciences, Piscataway, N.J.). […] Competition Binding Assays— Membranes from HEK293T cells transiently expressing CXCR3 or CXCR4 were prepared 48 h after transfection as follows. Cells were washed and scraped from the cell culture dishes with ice-cold PBS containing 1 mm EDTA. The scraped cells were pelleted at 1500×g for 10 min at 4° C. […] The total protein was determined using a Bradford assay (Bio-Rad). […] Plates were counted by liquid scintillation. […] The accumulated inositol phosphates were isolated by anion exchange chromatography and counted by liquid scintillation. […]"}, "CCR7": {"target": "T2, CCR7 (Homo sapiens, UniProt P32248)", "T2 sequence (P32248 25-378)": "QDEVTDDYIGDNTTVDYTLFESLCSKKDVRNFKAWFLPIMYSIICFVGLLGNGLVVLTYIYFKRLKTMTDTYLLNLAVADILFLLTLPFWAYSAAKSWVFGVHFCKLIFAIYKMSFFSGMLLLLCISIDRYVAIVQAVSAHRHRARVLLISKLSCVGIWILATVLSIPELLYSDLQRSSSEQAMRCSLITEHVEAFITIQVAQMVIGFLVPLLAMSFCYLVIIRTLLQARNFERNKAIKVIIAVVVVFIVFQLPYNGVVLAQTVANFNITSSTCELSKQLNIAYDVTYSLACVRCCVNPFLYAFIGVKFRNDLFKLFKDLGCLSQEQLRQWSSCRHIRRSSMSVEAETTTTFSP", "experiment": "CRE/β-galactosidase reporter gene selectivity screen, CCR7", "conditions": "up to 2.5, forskolin 3 μM, agonist at 50-80% Emax"}, "β2-adrenoceptors": {"target": "T3, β2-adrenoceptors (Homo sapiens, UniProt P07550)", "T3 construct": "(or mock for the investigation of endogenously expressed β2 adrenoceptors); endogenous in cells; host or cells: HEK293T cells (mock-transfected)", "experiment": "CRE/β-galactosidase reporter gene selectivity screen, endogenous β2-adrenoceptors of HEK293T cells", "conditions": "Nanobody 2.5 μM, salbutamol 100 nM, no forskolin", "procedure": "as §1, §2"}, "CXCR4 (N119A)": {"target": "CXCR4 (N119A) (Homo sapiens, UniProt P61073, N119A)", "sequence (P61073 whole entry N119A)": "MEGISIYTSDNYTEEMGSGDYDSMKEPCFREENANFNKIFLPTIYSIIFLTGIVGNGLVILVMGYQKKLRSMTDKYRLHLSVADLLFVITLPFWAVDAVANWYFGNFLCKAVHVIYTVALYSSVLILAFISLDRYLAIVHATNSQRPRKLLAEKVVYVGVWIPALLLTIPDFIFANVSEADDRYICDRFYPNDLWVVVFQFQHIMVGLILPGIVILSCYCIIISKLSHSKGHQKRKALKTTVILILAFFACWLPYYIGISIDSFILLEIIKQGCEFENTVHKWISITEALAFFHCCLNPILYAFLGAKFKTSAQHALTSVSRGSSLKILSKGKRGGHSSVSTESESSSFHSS", "experiment": "Basal inositol phosphate accumulation in HEK293T cells expressing CXCR4 (N119A)", "conditions": "ligand-induced alteration of basal inositol phosphate accumulation", "procedure": "HEK293T cells were maintained at 37° C. in a humidified 5% CO2, 95% air atmosphere in Dulbecco's modified Eagle's medium (DMEM) containing 2 mM L-glutamine, 50 IU/ml penicillin, 50 μg/ml streptomycin, and 10% (v/v) fetal calf serum. Jurkat cells were cultured in a humidified 5% CO2, 95% air atmosphere in a 1:1 mixture of Dulbecco's modified Eagle's medium (DMEM) and Ham's F12 medium containing 2 mM L-glutamine, 50 IU/ml penicillin, 50 μg/ml streptomycin, and 10% (v/v) fetal calf serum. […] [^125 I]-Labelling— Radiolabeling of Nanobodies with ^125I was performed using the Iodo-gen method (Pierce, Rockford, Ill.) according to the manufacturer's protocol. ^125I-labeled Nanobodies was separated from free iodine (>99%) using a Sephadex G-25 gel filtration column (Amersham Biosciences, Piscataway, N.J.). […] Competition Binding Assays— Membranes from HEK293T cells transiently expressing CXCR3 or CXCR4 were prepared 48 h after transfection as follows. Cells were washed and scraped from the cell culture dishes with ice-cold PBS containing 1 mm EDTA. The scraped cells were pelleted at 1500×g for 10 min at 4° C. The pellet was washed and then resuspended in ice-cold membrane buffer (15 mM Tris, pH 7.5, 1 mM EGTA, 0.3 mM EDTA, and 2 mM MgCl2). The cell suspension was homogenized by 10 strokes at 1200 rpm using a Teflon-glass homogenizer and rotor and further subjected to three freeze-thaw cycles using liquid nitrogen. Membranes were separated by centrifugation at 40,000 g for 25 min at 4° C. The membrane pellet was washed and resuspended in ice-cold Tris-sucrose buffer (20 mM Tris, pH 7.4, and 250 mM sucrose) and frozen in liquid nitrogen. The total protein was determined using a Bradford assay (Bio-Rad). Periplasmas (1:10) or ligands were pre-incubated with membranes in binding buffer (50 mM HEPES (pH 7.4), 1 mM CaCl2, 5 mM MgCl2, 100 mM NaCl, 0.5% bovine serum albumin) supplemented with 0.5% BSA for 1 h at 22° C. before the addition of [^125I]-CXCL12 (40 pM) or [^125I]-238D2 (3 nM) or [^125I]-238D4 (3 nM) for additional 2 h at 22° C. […] Membranes were then harvested over polyethylenimine (0.5%)-treated Whatman GF/C filter plates and washed three times with ice cold binding buffer containing 500 mM NaCl. Plates were counted by liquid scintillation. Inositol Phosphate Accumulation Assay— 24 hours post transfection with pcDNA3.1-CXCR4 and pcDNA1-HA-mG {alpha} qi5 (see Verzijl et al, 2008 supra), 250.000 cells were seeded into 24-wells plates and labelled overnight using inositol-free minimal essential medium supplemented with 1 μCi myo-[2-^3H]-inositol. The next day, the cells were washed once to remove not incorporated myo-[2-^3H]-inositol. […] In agonist experiments, the cells were directly stimulated with test compounds and LiCl (10 mM) in assay buffer for 2 h at 37° C. The stimulation was stopped by aspirating the stimulation medium and adding ice-cold 10 mM formic acid. The accumulated inositol phosphates were isolated by anion exchange chromatography and counted by liquid scintillation. CRE Reporter Gene Assay— HEK239T cells were transfected with pCRE/β-galactosidase (Chen W, Shields T S, Stork P J S, Cone R D (1995) Anal Biochem 226:349-354) and plasmids (pcDEF3 or pcDNA3.1) encoding the indicated receptors. 40,000 transfected cells per well were seeded into 96 well plates and grown in DMEM supplemented with 10% fetal calf serum. The medium was replaced 32 h after transfection by serum-free DMEM supplemented with 0.5% bovine serum albumin and ligands as indicated. […]"}}, "note": "Entries after “also recorded” stand apart in the source; their conditions may differ."}
{"molecule": "B1", "values": [{"measurement": "effect on agonist-induced response at CXCR2", "setting": "CXCR2", "value": "do not act as agonists or antagonists; also recorded: do not alter"}, {"measurement": "effect on agonist-induced response at CCR7", "setting": "CCR7", "value": "do not act as agonists or antagonists; also recorded: do not alter"}, {"measurement": "effect on activation of endogenous β2-adrenoceptors by salbutamol", "setting": "β2-adrenoceptors", "value": "do not act as agonists or antagonists; also recorded: did not inhibit"}, {"measurement": "functional profile at CXCR4 (N119A)", "setting": "CXCR4 (N119A)", "value": "neutral antagonist; also recorded: Neither significant agonistic nor inverse antagonistic activity"}]}
{"molecule": "B2", "values": [{"measurement": "effect on agonist-induced response at CXCR2", "setting": "CXCR2", "value": "do not act as agonists or antagonists; also recorded: do not alter"}, {"measurement": "effect on agonist-induced response at CCR7", "setting": "CCR7", "value": "do not act as agonists or antagonists; also recorded: do not alter"}, {"measurement": "effect on activation of endogenous β2-adrenoceptors by salbutamol", "setting": "β2-adrenoceptors", "value": "do not act as agonists or antagonists; also recorded: did not inhibit"}, {"measurement": "functional profile at CXCR4 (N119A)", "setting": "CXCR4 (N119A)", "value": "inverse antagonists; also recorded: partial inverse agonists"}]}
